Experimental data reported in publication PMC5293408 (Biochemistry, 2016).
Positions count from the first letter of the chain named. Names may count otherwise. “And” between values parts separate entries of the source, which are not always exact repeats. Equal entries are not always repeated. Where two headings read alike, the source gives them in different places.

What was measured:
[1] = target: T1, hUGDHA136M (human UDP-glucose dehydrogenase A136M) (Homo sapiens, UniProt O60701, A136M); experiment: steady-state kinetics, global fit of competitive inhibition; assay type: biochemical
T1 sequence (O60701 1-494 A136M): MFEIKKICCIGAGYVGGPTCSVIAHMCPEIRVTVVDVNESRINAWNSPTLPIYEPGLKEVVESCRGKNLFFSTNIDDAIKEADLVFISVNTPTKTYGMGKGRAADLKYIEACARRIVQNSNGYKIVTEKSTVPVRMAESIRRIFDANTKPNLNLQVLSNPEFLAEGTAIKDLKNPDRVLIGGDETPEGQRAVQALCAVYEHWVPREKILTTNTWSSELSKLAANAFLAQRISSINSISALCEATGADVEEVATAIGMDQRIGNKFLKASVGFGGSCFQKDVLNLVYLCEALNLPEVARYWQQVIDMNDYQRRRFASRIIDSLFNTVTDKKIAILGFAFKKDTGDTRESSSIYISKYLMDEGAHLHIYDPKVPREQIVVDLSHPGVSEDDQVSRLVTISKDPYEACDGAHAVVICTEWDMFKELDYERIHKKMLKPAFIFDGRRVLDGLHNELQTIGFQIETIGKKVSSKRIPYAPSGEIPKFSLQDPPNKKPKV

[2] = substrate: NC(=O)c1ccc[n+]([C@@H]2O[C@H](COP(=O)([O-])OP(=O)(O)OC[C@H]3O[C@@H](n4cnc5c(N)ncnc54)[C@H](O)[C@@H]3O)[C@@H](O)[C@H]2O)c1; experiment: steady-state NAD+ saturation kinetics; assay type: biochemical, Homo sapiens; settings: NAD+ binding domain (NB); varied: cofactor
[3] = target: the molecule itself; experiment: AUC
[4] = target: the molecule itself; experiment: AUC; remark: listed apart in the source

## O=c1ccn([C@@H]2O[C@H](COP(=O)(O)OP(=O)(O)O[C@H]3OC[C@@H](O)[C@H](O)[C@H]3O)[C@@H](O)[C@H]2O)c(=O)[nH]1 [UDP-xylose]
[1]
  Ki: 4.2 µM

B1: Human UDP-glucose dehydrogenase with the A136M substitution (enzyme)
chain: T1 sequence (O60701 1-494 A136M)
[2]
  Km: 90 µM
[3]
  stoichiometry N: 6 and 2 and 4

B2: Human UDP-glucose dehydrogenase (enzyme, UniProt O60701 1-494, looked up)
chain: T1 sequence (O60701 1-494 A136M) with M136A
[4]
  stoichiometry N: 2 and 4
[3]
  stoichiometry N: 6
